In patent US20200368361A1 (Regeneron, published 2020):
Residue numbers refer to the chain shown, from its start. Names may count otherwise.

B1: H1H21234N-N297Q (antibody, V domains shown)
VH: QVQLQESGPGLVKPSETLSLTCTVTGGSISRNYWSWIRQPPGKGLEWIGYIYYSGSIDYNPSLKSRVTISVDTSKNQFSLKLSSMTAADTAVYYCARDRWNWKYGMDVWGQGTTVIVSS
VL: EIVLTQSPGTLSLSPGERATLSCRASQTVRNNYLAWYHQKPGQAPRLLIYGASSRATGIPDRFSGSGSGTDFTLTISRLEPEDFTVYYCHQYGNSPWTFGQGTKMEIKR
notes: human IgG1 Fc with N297Q point mutation
B2: H1H27754P-N297Q (antibody, V domains shown)
VH: EVQLVESGGGLVQPGGSLRLSCAASGFTFRTYAMTWVRQAPGKGLDWVSAITGDGGNTYYADSVKGRFTISRDNSKNTLYLQMNSLRAEDTAIYYCAKDQRFSFALYYFDYWGQGTLVTVSS
VL: DIQMTQSPSSVSASVGDRVTITCRASQGISSWLAWYQQKPGNAPKLLIYAAFSLQSGVPSRFSGSGSGTDFTLTISSLQPEDFATYYCQQANNFPWTFGQGTKVEIKR
notes: as for B1
B3: H1H27732P-N297Q (antibody, V domains shown)
VH: QLQLQESGPGLVKPSETLSLTCTVSGGSISSSTYYWGWIRQPPGKGLEWIGSFYYSGSTYYNPSLKSRVTISVGTSKNQFSLKLSSVTAADTAVYFCARGGLLGRPFVIWGQGTMVTVSS
VL: DIQMTQSPSSLSASVGDRVTITCRASQGIRNDLGWYQQKPGKAPKRLIYAASSLQSGVPSRFSGSGSGTEFTLTISSLQPEDFATYYCLQHNSYPLTFGGGTKVEIKR
notes: as for B1
B4: H1H27756P-N297Q (antibody, V domains shown)
VH: QVQLVESGGGVVQPGRSLRLSCAASGFTFSNYDMHWVRQAPGKGLEWMAVISYDGINKYYADSVKGRFTISRDNSKNTLYLQMNSLRAEDTAVYYCAKGTYSWYFDLWGRGTLVTVSS
VL: not shown
notes: as for B1
B5: H1H27766P-N297Q (antibody, V domains shown)
VH: EVQLVESGGGLVQPGGSLRLSCAASGFTFSSFAMSWVRQAPGKELEWVSSISGRGGSTYYADSVRGRFTISRDNSKITLYLQMNSLRAEDTAVYYCAKDIVFRYTSSAYWYFDLWGRGTLVTVSS
VL: not shown
notes: human IgG1 Fc with N297Q point mutation; also called H1H27766P2-N297Q; H1H27766P2
B6: H1H27731P-N297Q (antibody, V domains shown)
VH: QLQLQESGPGLVKPSETLSLTCTVSGGSISRISYYWGWIRQPPGKGLEWIGSIYDSGSTYYNPSLKSRVTISIDTSKNQFSLKLSSVTAADTAVYYCVRYSSSSAFAFDYWGQGTLVTVSS
VL: B2 VL with N42K, F52S, N93S, W96F, Q100P, E105D
notes: as for B1
B7: H1H27762P-N297Q (antibody, V domains shown)
VH: QVQLVQSGAEVKKPGSSVKVSCKASGGTFSRYDISWVRQAPGQGLEWMGGIIPIFGTSNYAQKFQGRVTITTDESTSTVYMELSSLRSEDTAVYYCARGGRYGWFDPWGQGTLVTVSS
VL: not shown
notes: human IgG1 Fc with N297Q point mutation; also called H1H27762P2-N297Q; H1H27762P2
B8: H1H27759P-N297Q (antibody, V domains shown)
VH: EVQLVESGGGFVQPGGSLRLSCAASGFTFSSYAMSWVRQAPGKGLEWVSAISGTGSNTYYADSVKGRFTISRDNSKNTLYLQMNSLRAEDTAVYYCAKDRVTTVTYYFDYWGQGTLVTVSS
VL: not shown
notes: human IgG1 Fc with N297Q point mutation; also called H1H27759P2-N297Q; H1xH27759P2
B9: H1H27760P-N297Q (antibody, V domains shown)
VH: EVQLVESGGGLVQPGRSLRLSCAASGFTFDAYAMHWVRQAPGKGLEWVSGISWNSGSIGYADSVKGRFTISRDNAKNSLYLQMNSLREEDTALYYCAKDKILELYYYGMDVWGQGTTVTVSS
VL: not shown
notes: human IgG1 Fc with N297Q point mutation; also called H1H27760P2-N297Q; H1H27760P2
B10: H1H27729P-N297Q (antibody, V domains shown)
VH: QVQLVESGGGLVKPGGSLRLSCAASGFIFSDYYMSWIRQAPGKGLEWVSYISSSGTTIYGDSVKGRFTMSRDNAKNSLYLQMNSLRAEDTAVYYCARNYALFDYWGQGTLVTVSS
VL: DIQMTQSPSSLSASVGDRVTITCQASQDISKYLNWYQQKPGKAPKLLIYYTSNLETGVPSRFSGSGSGTDFTFTISSLQPEDIATYYCHQSDYLPFTFGPGTKVDIKR
notes: as for B1
B11: H1H27751P-N297Q (antibody, V domains shown)
VH: EVQLVESGGGLVQPGGSLRLSCAASGFTFSNYAMHWVRQAPGKGLEYVSAISSNGGSTYYADSVKGRITISRDNSKNTLYLQMGSLRAEDMAVYYCARGRPYYYYFGMDVWGQGTTVTVSS
VL: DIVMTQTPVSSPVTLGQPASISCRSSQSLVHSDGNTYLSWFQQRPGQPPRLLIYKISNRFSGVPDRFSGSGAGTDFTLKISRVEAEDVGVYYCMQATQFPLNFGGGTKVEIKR
notes: as for B1
B12: H1H27761P-N297Q (antibody, V domains shown)
VH: EVQLVESGGDLVQPGGSLRLSCSASGFTFNIYAMSWVRQAPGKGLEWVSGISGSGGSTYYADSVKGRFTISRDNSKNTLYFQMNSLRVEDTAVYYCAKKISSSSYYYYAMDVWGQGTTVTVSS
VL: not shown
notes: human IgG1 Fc with N297Q point mutation; also called H1H27761P2-N297Q; H1H27761P2
B13: H1H27739P-N297Q (antibody, V domains shown)
VH: EVQLVESGGGLVQPGGSLRLSCTASGFTFSSYAMSWVRQAPGKGLEWVSAISGTGSSTYFTDSVKGRFAISRDNSKNTLYLQMNSLRAEDTAVYYCAKDGEWLSTVTLFDYWGQGTLVTVSS
VL: EIVMTQSPATLSVSPGERATLSCRASQSVSSNLAWYQQKPGQAPRLLIYGASTRATGIPARFSGSGSGTDFTLTISSLQSEDFALYYCQQYFIWPPHPTFGPGTKVDIKR
notes: as for B1
B14: H1H27734P-N297Q (antibody, V domains shown)
VH: EVQLVESRGGLVQPGGSLRLSCAASGFTFSSYAMSWVRQAPGKGLEWVSAISGSGGSTFYADSVKGRFTISRDNSKNTVYLQMNSLRAEDTAVYYCAKALVLRFLEWLGDYWGQGTLVTVSS
VL: DIQMTQSPSTLSASVGDRVTITCRASQSISSWLAWFQQKPGKAPKLLIYKASSLESGVPSRFSGSGSGTEFTLTISSLQPDDFATYYCQQYKSYWTFGQGTKVEIKR
notes: as for B1
B15: H1H27747P-N297Q (antibody, V domains shown)
VH: QVQLVESGGAVVQPGRSLRLSCAASGFTFSYYGMHWVRQAPGKGLEWVAVISYDGSKKYYADSVKGRFTISRDNSKNTLYLQMNSLRAEDTAVYYCAKDLTVDFYYGMDVWGQGTTVTVSS
VL: B2 VL with N42K, A51T, F52S, V58A, Y87F, N93S, W96Y, V104L
notes: as for B1

molecular target: T1, human MSR1 extracellular domain expressed with a N-terminal nonahistidine tag (His9-hMSR1); R&D Systems, Cat … (human, UniProt P21757 77-451); assay: SPR Biacore, 25C, mAb captured by anti-human Fc, MSR1 as analyte; calculated from kd fixed at 1.00E-05
T1 construct: extracellular domain; Bought protein; also called His-hMSR1
T1 sequence: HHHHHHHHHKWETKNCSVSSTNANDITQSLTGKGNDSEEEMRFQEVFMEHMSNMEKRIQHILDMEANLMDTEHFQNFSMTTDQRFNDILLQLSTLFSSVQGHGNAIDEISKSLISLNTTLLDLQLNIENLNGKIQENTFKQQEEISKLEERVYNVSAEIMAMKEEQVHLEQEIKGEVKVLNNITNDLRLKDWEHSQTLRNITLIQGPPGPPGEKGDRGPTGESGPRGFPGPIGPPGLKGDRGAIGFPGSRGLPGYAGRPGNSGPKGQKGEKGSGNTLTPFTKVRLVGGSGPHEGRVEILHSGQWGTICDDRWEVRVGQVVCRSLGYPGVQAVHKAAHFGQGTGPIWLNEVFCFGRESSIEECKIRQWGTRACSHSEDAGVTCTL
Experimental: (§1) Binding affinities and kinetic constants of human anti-MSR1 antibodies for different MSR1 reagents were determined by real-time surface plasmon resonance (Biacore 4000). All binding studies were performed in 10 mM HEPES, 150 mM NaCl, 3 mM EDTA, and 0.05% v/v Surfactant Tween-20, pH 7.4 (HBS-ET) running buffer at 25° C. and 37° C.
(§2) The association rate (kₐ) and dissociation rate (kd) were determined by fitting the real-time binding sensorgrams to a 1:1 binding model with mass transport limitation using Scrubber 2.0 c curve-fitting software.

| Binder | t½ |
| --- | --- |
| B1 | 1160 min |
| B2 | 1160 min |
| B3 | 1160 min |

molecular target: T1, human MSR1 extracellular domain …; assay: SPR Biacore, 25C, mAb captured by anti-human Fc, MSR1 as analyte;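 also: Half-life of complex dissociation derived from kinetic rates, obtained by fitting Biacore 4000 sensorgrams to a 1:1 model including mass transport, run in HBS-ET buffer at pH 7.4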
Experimental: as §1, §2

| Binder | t½ |
| --- | --- |
| B4 | 94 min |
| B5 | 620 min |
| B6 | 515 min |
| B7 | 6 min |
| B8 | 9 min |
| B9 | 13 min |
| B10 | 11 min |
| B11 | 38 min |
| B12 | 23 min |
| B13 | 11 min |
| B14 | 10 min |

Molecular target: T2, monkey MSR1 extracellular domain expressed with a N-terminal hexahistidine-myc-myc tag (HMM-mfMSR1) (monkey (Macaca fascicularis))
T2 chain: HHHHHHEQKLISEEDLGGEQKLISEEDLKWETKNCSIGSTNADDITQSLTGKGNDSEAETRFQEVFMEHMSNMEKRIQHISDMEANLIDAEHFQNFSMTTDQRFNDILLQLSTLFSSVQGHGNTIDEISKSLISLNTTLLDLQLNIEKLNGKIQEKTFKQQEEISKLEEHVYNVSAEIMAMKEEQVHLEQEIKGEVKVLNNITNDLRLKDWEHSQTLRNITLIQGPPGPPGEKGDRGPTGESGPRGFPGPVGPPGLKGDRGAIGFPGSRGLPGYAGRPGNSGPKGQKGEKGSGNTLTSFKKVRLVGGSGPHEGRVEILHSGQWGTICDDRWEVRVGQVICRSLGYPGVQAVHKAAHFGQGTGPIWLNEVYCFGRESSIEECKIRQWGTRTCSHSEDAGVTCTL
Assay: as above
Experimental: as §1, §2

| Binder | t½ |
| --- | --- |
| B1 | 593 min |
| B4 | 5 min |
| B5 | 145 min |
| B6 | 247 min |
| B2 | 657 min |
| B15 | 13 min |
| B7 | 6 min |
| B8 | 13 min |
| B9 | 16 min |
| B10 | 5 min |
| B11 | 15 min |
| B12 | 19 min |
| B13 | 80 min |
| B3 | 364 min |
| B14 | 4 min |
